Here are results for 15 molecules from patent US20070202552A1 (Genentech, published 2007).

As a reminder, the IC50 is the concentration needed to halve the response being measured.

Where two headings read alike, the source gives them in different places.

Assay [1] has as its target T1, human HER-2 extracellular domain (HER-2 ECD) (human, UniProt P04626 23-646).
T1 construct: range 23-646; also called erbB2; HER2 protein
Description: competitive Fab-phage ELISA. For orientation: ELISA stands for enzyme-linked immunosorbent assay.

Assay [2] concerns the target T1, human HER-2 extracellular domain (HER-2 …). The assay can be described thus: competitive Fab-phage ELISA. This is another data set of the same source.

B1: B9 (Fab, V domains shown)
VH: EVQLVESGGGLVQPGGSLRLSCAASGFSIYYSYIHWVRQAPGKGLEWVASIYPSSGYTSYADSVKGRFTISADTSKNTAYLQMNSLRAEDTAVYYCARWWSSAFDYWGQGTLVTVSS
VL: DIQMTQSPSSLSASVGDRVTITCRASQDVNTAVAWYQQKPGKAPKLLIYSASSLYSGVPSRFSGSRSGTDFTLTISSLQPEDFATYYCQQSYYSPSTFGQGTKVEIK
Take B1: the concentration for half-maximal inhibition (IC50) in assay [1] amounted to 0.72 nM.

B2: G59 (Fab, V domains shown)
VH: EVQLVESGGGLVQPGGSLRLSCAASGFYISSSSIHWVRQAPGKGLEWVAYISPSSGYTYYADSVKGRFTISADTSKNTAYLQMNSLRAEDTAVYYCARYYSSYYSYYSYALDYWGQGTLVTVSS
VL: DIQMTQSPSSLSASVGDRVTITCRASQDVNTAVAWYQQKPGKAPKLLIYSASSLYSGVPSRFSGSRSGTDFTLTISSLQPEDFATYYCQQSYSYPYTFGQGTKVEIK
As to B2, the IC50 in assay [2] was 6.8 nM. That is a single-digit nanomolar value.

B3: G41 (Fab, V domains shown)
VH: EVQLVESGGGLVQPGGSLRLSCAASGFWIWSSSIHWVRQAPGKGLEWVAWISPSSGSTWYADSVKGRFTISADTSKNTAYLQMNSLRAEDTAVYYCARSSWSSWSSALDYWGQGTLVTVSS
VL: DIQMTQSPSSLSASVGDRVTITCRASQDVNTAVAWYQQKPGKAPKLLIYSASSLYSGVPSRFSGSRSGTDFTLTISSLQPEDFATYYCQQWSSWPSTFGQGTKVEIK
Turning to B3, the IC50 in assay [2] came to 51 nM.

B4: G53 (Fab, V domains shown)
VH: EVQLVESGGGLVQPGGSLRLSCAASGFSISSSYIHWVRQAPGKGLEWVASIYPYSGYTSYADSVKGRFTISADTSKNTAYLQMNSLRAEDTAVYYCARYYSSAFDYWGQGTLVTVSS
VL: DIQMTQSPSSLSASVGDRVTITCRASQDVNTAVAWYQQKPGKAPKLLIYSASSLYSGVPSRFSGSRSGTDFTLTISSLQPEDFATYYCQQSYYYPSTFGQGTKVEIK
For B4, in assay [2], the concentration for half-maximal inhibition (IC50) was found to be 9.75 nM.

B5: G61 (Fab, V domains shown)
VH: EVQLVESGGGLVQPGGSLRLSCAASGFSIYYSSIHWVRQAPGKGLEWVASIYPSSGSTYYADSVKGRFTISADTSKNTAYLQMNSLRAEDTAVYYCARYYSSSSSYSSSYYYYAFDYWGQGTLVTVSS
VL: DIQMTQSPSSLSASVGDRVTITCRASQDVNTAVAWYQQKPGKAPKLLIYSASSLYSGVPSRFSGSRSGTDFTLTISSLQPEDFATYYCQQYYSSPYTFGQGTKVEIK
In assay [2], B5 returned an IC50 of 145 nM.

B6: G60 (Fab, V domains shown)
VH: EVQLVESGGGLVQPGGSLRLSCAASGFSIYYSSIHWVRQAPGKGLEWVASIYPYSGSTYYADSVKGRFTISADTSKNTAYLQMNSLRAEDTAVYYCARYYSSYSSSSSYYYYAFDYWGQGTLVTVSS
VL: DIQMTQSPSSLSASVGDRVTITCRASQDVNTAVAWYQQKPGKAPKLLIYSASSLYSGVPSRFSGSRSGTDFTLTISSLQPEDFATYYCQQYYSSPYTFGQGTKVEIK
In turn, B6 gave a half-inhibitory concentration (IC50) in assay [2] of 79.8 nM.

B7: G42 (Fab, V domains shown)
VH: EVQLVESGGGLVQPGGSLRLSCAASGFWIWSSSIHWVRQAPGKGLEWVAWISPSSGSTWYADSVKGRFTISADTSKNTAYLQMNSLRAEDTAVYYCARSSWSSWSSALDYWGQGTLVTVSS
VL: DIQMTQSPSSLSASVGDRVTITCRASQDVNTAVAWYQQKPGKAPKLLIYSASSLYSGVPSRFSGSRSGTDFTLTISSLQPEDFATYYCQQWSSWPSTFGQGTKVEIK
In turn, B7 had an IC50 in assay [2] of 43 nM.

B8: B1 (Fab, V domains shown)
VH: EVQLVESGGGLVQPGGSLRLSCAASGFYISSSYIHWVRQAPGKGLEWVASIYPYSGYTSYADSVKGRFTISADTSKNTAYLQMNSLRAEDTAVYYCARYYSYAFDYWGQGTLVTVSS
VL: DIQMTQSPSSLSASVGDRVTITCRASQDVNTAVAWYQQKPGKAPKLLIYSASSLYSGVPSRFSGSRSGTDFTLTISSLQPEDFATYYCQQSYYSPSTFGQGTKVEIK
For B8, the IC50 in assay [1] amounted to 6.28 nM.

B9: G56 (Fab, V domains shown)
VH: EVQLVESGGGLVQPGGSLRLSCAASGFYISSSYIHWVRQAPGKGLEWVASIYPYSGYTSYADSVKGRFTISADTSKNTAYLQMNSLRAEDTAVYYCARYYSYALDYWGQGTLVTVSS
VL: DIQMTQSPSSLSASVGDRVTITCRASQDVNTAVAWYQQKPGKAPKLLIYSASSLYSGVPSRFSGSRSGTDFTLTISSLQPEDFATYYCQQSYYSPSTFGQGTKVEIK
The molecule B9 gave a half-maximal inhibitory concentration (IC50) in assay [2] of 7.13 nM.

B10: G55 (Fab, V domains shown)
VH: EVQLVESGGGLVQPGGSLRLSCAASGFSIYSSYIHWVRQAPGKGLEWVASIYPYSGYTSYADSVKGRFTISADTSKNTAYLQMNSLRAEDTAVYYCARYYSYAFDYWGQGTLVTVSS
VL: DIQMTQSPSSLSASVGDRVTITCRASQDVNTAVAWYQQKPGKAPKLLIYSASSLYSGVPSRFSGSRSGTDFTLTISSLQPEDFATYYCQQSYYYPSTFGQGTKVEIK
Turning to B10, the IC50 in assay [2] was determined as 6.52 nM.

B11: B13 (Fab, V domains shown)
VH: EVQLVESGGGLVQPGGSLRLSCAASGFSIYYSYIHWVRQAPGKGLEWVASIYPSSGYTSYADSVKGRFTISADTSKNTAYLQMNSLRAEDTAVYYCARWWSSAFDYWGQGTLVTVSS
VL: DIQMTQSPSSLSASVGDRVTITCRASQDVNTAVAWYQQKPGKAPKLLIYSASSLYSGVPSRFSGSRSGTDFTLTISSLQPEDFATYYCQQSYYYPSTFGQGTKVEIK
B11 showed an IC50 in assay [1] of 1.1 nM. In other words, the single-digit nanomolar range.

B12: B10 (Fab, V domains shown)
VH: EVQLVESGGGLVQPGGSLRLSCAASGFSIYYSYIHWVRQAPGKGLEWVASIYPSSGYTSYADSVKGRFTISADTSKNTAYLQMNSLRAEDTAVYYCARWWSSGFDYWGQGTLVTVSS
VL: DIQMTQSPSSLSASVGDRVTITCRASQDVNTAVAWYQQKPGKAPKLLIYSASSLYSGVPSRFSGSRSGTDFTLTISSLQPEDFATYYCQQSYYSPSTFGQGTKVEIK
In turn, B12 gave an IC50 in assay [1] of 3.76 nM.

B13: B12 (Fab, V domains shown)
VH: EVQLVESGGGLVQPGGSLRLSCAASGFSISYSYIHWVRQAPGKGLEWVASIYPYSGYTSYADSVKGRFTISADTSKNTAYLQMNSLRAEDTAVYYCARWWSWAFDYWGQGTLVTVSS
VL: DIQMTQSPSSLSASVGDRVTITCRASQDVNTAVAWYQQKPGKAPKLLIYSASSLYSGVPSRFSGSRSGTDFTLTISSLQPEDFATYYCQQYYYSPSTFGQGTKVEIK
Consider B13, for which the concentration for half-maximal inhibition (IC50) in assay [1] was determined as 6.66 nM.

B14: G33 (Fab, V domains shown)
VH: EVQLVESGGGLVQPGGSLRLSCAASGFSIWSSWIHWVRQAPGKGLEWVASISPSSGWTSYADSVKGRFTISADTSKNTAYLQMNSLRAEDTAVYYCARWWSSALDYWGQGTLVTVSS
VL: DIQMTQSPSSLSASVGDRVTITCRASQDVNTAVAWYQQKPGKAPKLLIYSASSLYSGVPSRFSGSRSGTDFTLTISSLQPEDFATYYCQQWWWWPSTFGQGTKVEIK
With B14, the concentration for half-maximal inhibition (IC50) in assay [2] was 1.7 nM.

B15: B14 (Fab, V domains shown)
VH: EVQLVESGGGLVQPGGSLRLSCAASGFSIYYSYIHWVRQAPGKGLEWVASIYPSSGYTSYADSVKGRFTISADTSKNTAYLQMNSLRAEDTAVYYCARWWSSAFDYWGQGTLVTVSS
VL: DIQMTQSPSSLSASVGDRVTITCRASQDVNTAVAWYQQKPGKAPKLLIYSASSLYSGVPSRFSGSRSGTDFTLTISSLQPEDFATYYCQQYYYYPYTFGQGTKVEIK
In the case of B15, the 50% inhibitory concentration (IC50) in assay [1] is 1.36 nM. In other words, the single-digit nanomolar range.
